From paper PMC11321707

Key:
[1] = 1H-15N HSQC NMR (signal loss and chemical shift perturbation upon self-assembly); R5 in phosphate-buffered solution, 50 mM Pi, pH 6.5, 25 °C; compared with R5 without Pi; conditions: other: 1H-15N HSQC NMR (signal loss and chemical shift perturbation upon self-assembly)
[2] = 1H-15N HSQC NMR (signal loss and chemical shift perturbation upon self-assembly); R5 in phosphate-buffered solution, 11.8 mM Pi, pH 6.5, 25 °C; compared with R5 without Pi; conditions: other: 1H-15N HSQC NMR (signal loss and chemical shift perturbation upon self-assembly)
[3] = diffusion-ordered NMR spectroscopy (DOSY); R5 in the presence of Pi, 25 °C; hydrodynamic radius by Stokes-Einstein, spherical model; monomer to trimer; conditions: other: diffusion-ordered NMR spectroscopy (DOSY)

## R5 peptide
[1]
  percent of the peptides outside the large self-assemblies, with Pi: ≈0.7 and ≈0.01% of the peptides remained outside the large self‐assemblies
[2]
  percent of the peptides outside the large self-assemblies, with Pi: ≈0.7 and ≈0.01% of the peptides remained outside the large self‐assemblies
[3]
  N with Pi: an aggregate volume that fits three R5 units
